This data set relates to T1, His6-WblI (Streptomyces lividans TK24), ORF:202723bd.
T1 sequence: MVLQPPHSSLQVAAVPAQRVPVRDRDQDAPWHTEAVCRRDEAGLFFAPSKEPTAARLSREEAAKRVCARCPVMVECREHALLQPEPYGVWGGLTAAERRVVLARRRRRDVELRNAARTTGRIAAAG
The data set is described as follows: EMSA. The conditions noted are these: 10 mM Tris-HCl pH 7.5, 50 mM KCl, 1 mM DTT, 20 µl, room temperature 15 min, 50 pmol probe, 5% native PAGE in 45 mM Tris-HCl pH 8.3, 45 mM boric acid. In general terms: Mobility shift assays separate free from complexed probe on a gel.

Take “AGCCAGTGGCGATAAGGTTCCGTCCGGTCCGGGGCCGTCCTCGGGCAGTAACGCCGACGGCGGGGCCGTGGCCCTGTCCGGCTCGTCGGCTTCAACGGAACTCATGGCGTCCCCCGGGTCCTCGACTATTGGTCCACGAACGACCACCGTTCTACAATGGAACGGTGGTCGCGTCAAGAAACGGTGGCCCGTTCATGCCATACGATGAGGAGCACGTGTCGCTTATCGCCACTGGCT (double strand) [actII-1/actII-2 intergenic region]”: the binding entry was “binds”.

These data come from paper PMC5373594.
